From publication PMC3204800

Tests used:
[1] = biological target: Third plant homeodomain (PHD3) finger of MLL, residues 1565-1627 (human) (UniProt Q03164); assay: ITC
[2] = biological target: Cyp33 RRM domain (human, UniProt Q9UNP9 1-90); assay: NMR
Chain of Cyp33 RRM domain (Q9UNP9 1-90): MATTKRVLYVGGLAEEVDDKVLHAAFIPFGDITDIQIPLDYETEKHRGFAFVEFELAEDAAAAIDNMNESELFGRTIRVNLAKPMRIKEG

Chain of Third plant homeodomain (PHD3) finger of MLL, residues 1565-1627 (human) (Q03164 1565-1627): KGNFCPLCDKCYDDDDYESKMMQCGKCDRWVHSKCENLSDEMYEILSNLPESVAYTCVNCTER

“RRM domain of human Cyclophilin 33 (Cyp33), residues 1-90 (from UniProt Q9UNP9 1-90) (domain or fragment)” showed a Kd [1] of 1.9 µM and a dH [1] of -10 kcal.

For “Cyp33 RRM domain F49A mutant (from UniProt Q9UNP9 1-90) (domain or fragment)”, the fold reduction of affinity against the wild type [1] was 35 fold.

In the case of “Cyp33 RRM domain L39A mutant (from UniProt Q9UNP9 1-90) (domain or fragment)”, the fold reduction of affinity against the wild type [1] is reported as 10 fold.

AAUAAA (ssRNA) [AAUAAA RNA] showed a Kd [2] of 198 ± 11 µM.
